Measured values: patent US8624002B2, “Prostaglandin E2 binding proteins and uses thereof” (AbbVie, Inc., priority 2008, dated 2014)
Changes are numbered by the printed parent chain.

B1: Hu2B5.1: humanized 2B5-8.0; VH SEQ ID NO 60, VL SEQ ID NO 61 (antibody, V domains shown)
VH: EVQLVQSGAEVKKPGASVKVSCKASGYTFTKYWLGWVRQAPGQGLEWIGDIYPGYDYTHYNEKFKDRATLTVDTSTSTAYMELRSLRSDDTAVYYCARSDGSSTYWGQGTLVTVSS
VL: DVVMTQTPLSLPVTPGEPASISCTSSQNIVHSNGNTYLEWYLQKPGQSPQLLIYKVSNRFSGVPDRFSGSGSGTDFTLKISRVEAEDVGVYYCFQVSHVPYTFGGGTKVEIKR
B2: Hu2B5.3: humanized 2B5-8.0; VH SEQ ID NO 64, VL SEQ ID NO 65 (antibody, V domains shown)
VH: B1 VH
VL: B1 VL with V3L
B3: Hu2B5.2: humanized 2B5-8.0; VH SEQ ID NO 62, VL SEQ ID NO 63 (antibody, V domains shown)
VH: B1 VH with R84S
VL: B1 VL
B4: Hu2B5.6: humanized 2B5-8.0; VH SEQ ID NO 70, VL SEQ ID NO 71 (antibody, V domains shown)
VH: B1 VH with I48M, A68V, V72T, R84S
VL: B1 VL
B5: Hu2B5.4: humanized 2B5-8.0; VH SEQ ID NO 66, VL SEQ ID NO 67 (antibody, V domains shown)
VH: B1 VH with R84S
VL: B1 VL with V3L
B6: Hu2B5.8: humanized 2B5-8.0; VH SEQ ID NO 74, VL SEQ ID NO 75 (antibody, V domains shown)
VH: B1 VH with I48M, A68V, V72T, R84S
VL: B1 VL with V3L

assay: PGE2 competition ELISA, format not stated (biotin-PGE2 or ^3H-PGE2); assay type: binding; conditions: PGA2; humanized antibodies table
Description: Competition enzyme linked immunosorbent assays were performed to determine prostaglandin binding specificity for antibodies that bind prostaglandin E2, according to at least one of the two following methods.
ELISA plates (Costar 3369, Corning, N.Y.) were coated with 50 μl/well of anti-host Fc IgG (Sigma, St. Louis, Mo.) at 2 μg/ml in PBS (Invitrogen, Carlsbad, Calif.). Following an overnight incubation at 4° C., the plate was blocked with 200 μl Superblock (Pierce #37535, Rockford, Ill.). The IgG samples were diluted to 6 μg/ml in Assay Buffer (10% Superblock in PBS containing 0.05% Surfactamps (Pierce #37535, Rockford, Ill.). The PGE2-biotinamide was diluted to 3 nM in Assay Buffer. A titration curve in Assay Buffer was prepared for the prostaglandins PGA2 (Cayman Chemicals, Ann Arbor, Mich.), PGD2 (Cayman Chemicals, Ann Arbor, Mich.) and PGE2 (Cayman Chemicals, Ann Arbor, Mich.) starting at 300 nM by a 1:10 serial dilution. The reagents were added to tubes at a volume of 50 μl each/tube and preincubated for 1 hour at room temperature. Following the preincubation, the mix was transferred to the blocked plates and allowed to incubate for 1 hour at room temperature. Next, the plates were washed four times with Tween 20-Tris buffered solution (TTBS). Streptavidin polyhrp40 in Assay Buffer (Fitzgerald Industries, Concord, Mass.) at a 1:5000 dilution was then added to the wells and incubated for 45 minutes at room temperature. A final wash step was performed and the plates were developed using a single step TMB system (Sigma #T8665, Sigma, St. Louis, Mo.) and 100 μl/well 2N H2SO4. Plates were read at 450 nm on a Molecular Devices Spectramax plate reader (Sunnyvale, Calif.). […] IC50 number was determined using GraphPad Prism 5 (GraphPad Software, La Jolla, Calif.). The cross reactivity index was then calculated by IC50 of PGE2/IC50 of other prostaglandin(s).
Alternatively, prostaglandin selectivity was determined using a ^3H-PGE2 competition ELISA. Plates were coated with 50 μL/well of 5 μg/ml of goat anti-human IgG (Fc) (Thermo Scientific # 31170, Hudson, N.H.) or goat anti-mouse IgG (Fc) (Thermo Scientific # 31125, Hudson, N.H.) in PBS and incubated overnight at 4° C. The following day plates were flicked and blotted dry. Plates were blocked with 200 μL/well of Superblock (Thermo Scientific # 37515, Hudson, N.H.), 1 hour at room temperature. Plates were flicked and blotted dry. Monoclonal antibodies were diluted to 0.04 μg/ml in PBST (Abbott Bioresearch Center, Worcester, Mass.)/10% Superblock and 50 μL of each was added to each well (2 ng/well) of the pre-blocked ELISA plate and incubated for 1 hour at room temperature. Wells were washed 3 times with PBS/0.1% Tween-20. ^3H-PGE2 (Perkin Elmer # NET-428, Waltham, Mass.) was diluted in PBST/10% Superblock to 6 nM (2× stock). Each prostaglandin (Cayman Chemicals, Ann Arbor, Mich.) was prepared in PBST+10% Superblock at various concentrations ranging from 2000 μM (2× stock) to 0.00004 μM (2×). Equal volumes of the ^3H-PGE2 solution and of each prostaglandin dilution were mixed. Fifty microliters of this mixture was then added to each well of the plate and incubated for 1 hour at room temperature. Wells were washed manually 6 times with PBST/10% Superblock and 50 μL of scintillation fluid (Perkin Elmer # 6013621, Waltham, Mass.) added to each well. Plates were read using a TopCount reader (Perkin Elmer, Waltham, Mass.) with a 5 minute count delay. IC50 number was determined using GraphPad Prism 5 (GraphPad Software, La Jolla, Calif.). The cross reactivity index was then calculated by IC50 of PGE2/IC50 of other prostaglandin(s)
Several antibodies, named 19C9, 4F10 and 15F10 specific for PGE2 were isolated. […] The specificity of these antibodies for PGE2 was further determined by a competition ELISA with various prostaglandins as described in Example 1.B (Table 2). […]

Molecule | Cross Reactivity Index (%) PGA2 [%]
B1 | 0.21
B2 | 0.18
B3 | 0.18
B4 | 0.15
B5 | 0.22
B6 | 0.20

same assay, conditions: PGD2; humanized antibodies table

Molecule | Cross Reactivity Index (%) PGD2 [%]
B1 | <0.01
B2 | <0.01
B3 | <0.01
B4 | <0.01
B5 | <0.01
B6 | <0.01

same assay, conditions: PGE1; humanized antibodies table

Molecule | Cross Reactivity Index (%) PGE1 [%]
B1 | 16
B2 | 14
B3 | 14
B4 | 11
B5 | 14
B6 | 8.5

assay: Capillary zone electrophoresis; assay type: physicochemical; conditions: running buffer pH 5.5; compared with Hu2B5.2, Hu2B5.4, Hu2B5.6, Hu2B5.8
Description: Capillary zone electrophoresis is a capillary electrophoresis method in which the capillary is filled with buffer and the separation mechanism is based on differences in electrophoretic mobility of the analyte through the buffer. The electrophoretic mobility of a molecule is related to the charge-to-size ratio. A Beckman-Coulter ProteomeLab PA 800 (Beckman Coulter, Fullerton, Calif.) was used for the CZE analysis. A neutral capillary (eCAP neutral, 56 cm total length, 50 μm I. D. Beckman-Coulter, P/N 477441, Fullerton, Calif.) was used. The method used a 30.2 cm capillary with a detection window 20.2 cm from the sample introduction inlet. The running buffer was 100 mM EACA (6-Aminocaproic acid, Sigma A7824-100 G, St. Louis, Mo.) with 0.1% MC (from 1% Methylcellulose solution, Convergent Bioscience, cat# 101876, Toronto, ON, Canada), pH 5.5.

Molecule | migration in capillary zone electrophoresis
B1 | migrated more basic
B2 | migrated more basic
